Results reported in publication PMC11220700, “Activation and Purification of ß‐Glucocerebrosidase by Exploiting its Transporter LIMP‐2 – Implications for Novel Treatment Strategies in Gaucher's and Parkinson's Disease” (Advanced Science, 2024).

How the values were obtained:
[1] = tested on: GCase variants in HEK 293T cell lysates; assay: GCase activity in cell lysates of cells overexpressing GCase variants; format: cell-based, human; settings: 4MU; for GCase activity compared with mock: cell lysates, N370S n = 3, L444P n = 5
Protocol: (§1) HEK 293T cells (Leibniz Institute DSMZ‐German Collection of Microorganism and Cell Cultures GmbH, Braunschweig, Germany) were cultured on TC dishes (Sarstedt, Nümbrecht, Germany, #83.3902, #83.3903) in Dulbecco's modified eagle medium (DMEM, Gibco, Carlsbad, CA, United States) supplemented with 10% fetal calf serum (FCS, PANbiotech, Aidenbach, Germany) and 1× penicillin/streptomycin (Sigma‐Aldrich, St. Louis, MO, United States, #P0781) at 37 °C, 5% CO2 and 95% humidity. Passaging was done at 70–90% confluence by detaching with trypsin (PAN‐Biotech, Aidenbach, Germany, #P10‐023100) for 5 min and transferring part of the culture to a new dish containing fresh medium. The HEK 293T cells were transfected using PEI at 60–70% confluence. For a 10 cm TC dish, the transfection mix was prepared by adding 5 µg plasmid DNA, 15 µg of PEI (ratio of 1:3 DNA to PEI) to 300 µl DMEM without FCS. After incubation for 25 min at room temperature, the mix was added to the cells. If the cell supernatant was analyzed, the cells were washed twice with phosphate‐buffered saline (PBS, Gibco, Carlsbad, CA, United States) and the medium was changed to DMEM without FCS 16 h after transfection.
Harvested cells were washed three times with cold PBS and pelleted (1.000 × g, 3 min, 4 °C). […] Protein concentrations were determined using Pierce BCA Protein Assay Kit (ThermoFisher Scientific Inc., Waltham, MA, United States, #23 227).
Activity of GCase‐containing samples (recombinant protein, cell lysate, LE fractions, conditioned culture medium) was measured using the synthetic substrate 4‐methylumbelliferyl‐β‐D‐glucopyranoside (4MU, Merck Millipore, Billerica, MA, United States, #M3633). […] GCase activity was quantified via fluorescence of released 4‐methylumbelliferone (endpoint measurement) using an Infinite 200 Pro (TECAN, Männedorf, Switzerland), SpectraMax Gemini (Molecular Devices, San José, CA, United States) or ClarioStar (BMG LABTECH, Ortenberg, Germany) multiplate reader (λ ex: 365 nm; λ em: 445 nm). […]

[2] = tested on: GCase variants; settings: cited from earlier work
Description: The link between GCase and PD was first established when studies found an increased prevalence of PD in GD patients and their relatives.^[ [14], [15], [16] ^] […] All three variants are characterized by compromised stability and/or enzyme activity. The L444P variant ...

[3] = tested on: GCase variants in HEK 293T cells; assay: GCase activity in LE fractions after co‐expression of GCase variants with FL‐LIMP‐2; format: cell-based, human; settings: versus FL‐LIMP‐2‐3xD
Protocol: as §1
Activity of GCase‐containing samples (recombinant protein, cell lysate, LE fractions, conditioned culture medium) was measured using the synthetic substrate 4‐methylumbelliferyl‐β‐D‐glucopyranoside (4MU, Merck Millipore, Billerica, MA, United States, #M3633). […] of the sample (cell supernatant, SEC fractions) or 2.5 µg of total protein from whole‐cell lysates were added to the well of a black 96‐well Maxisorp plate (ThermoFisher Scientific Inc., Waltham, MA, United States, #437 111). The reaction volume was then increased to 100 µL with GCase activity buffer (see paragraph “Cell Lysis”) and a final concentration of 1 µM of 4MU substrate was added. After incubation at 37 °C for 30 min, the reaction was stopped by adding 100 µL of stop solution (0.1 M glycine, pH 10.4). GCase activity was quantified via fluorescence of released 4‐methylumbelliferone (endpoint measurement) using an Infinite 200 Pro (TECAN, Männedorf, Switzerland), SpectraMax Gemini (Molecular Devices, San José, CA, United States) or ClarioStar (BMG LABTECH, Ortenberg, Germany) multiplate reader (λ ex: 365 nm; λ em: 445 nm).
For evaluation, all data sets obtained for GCase enzymatic activity were baseline‐corrected and normalized to the overall signal (either total signal or average of controls) within each replicate experiment to correct for signal differences between different measurement devices and replicate measurements.

[4] = tested on: GCase variants in HEK 293T cells; assay: Western blot of GCase in LE fractions after co‐expression with FL‐LIMP‐2; format: cell-based, human; settings: versus FL‐LIMP‐2‐3xD
Protocol: SDS PAGE was performed using a Tris‐glycine buffer system (resolving buffer: ThermoFisher Scientific Inc., Waltham, MA, United States, #HC2215; stacking buffer: ThermoFisher Scientific Inc., Waltham, MA, United States, #HC2115; running buffer: 25 mM Tris, 192 mM glycine, […]). All samples were prepared by adding 5× Laemmli buffer (0.3 M Tris‐HCl, pH 6.8, 10% w/v SDS, 50% v/v glycerol, 5% v/v β‐mercaptoethanol, 5% w/v bromophenol blue) to the samples in a 1:5 ratio and heating the samples for 5 min at 95 °C. The samples were then separated over a 10% polyacrylamide gel. After SDS PAGE, wet blotting was performed to transfer the proteins onto a PVDF membrane (Merck Millipore, Billerica, MA, United States, #IPFL00010). […] After incubation, membranes were washed three times with TBS‐T (TBS + 0.1% v/v TWEEN‐20) before incubation with secondary antibodies for 2 h at RT followed by three more washing steps with TBS‐T. The fluorescence‐based acquisition was done using an Odyssey (LI‐COR Biosciences, Lincoln, NE, United States) or IBright (ThermoFisher Scientific Inc., Waltham, MA, United States) imaging system. […]
Quantification of western blot data was performed in ImageStudioLite 5.2 (LI‐COR Biosciences, Lincoln, NE, United States). […]

B1: E326K: PD‐associated GCase variant (protein)
chain: ARPCIPKSFGYSSVVCVCNATYCDSFDPPTFPALGTFSRYESTRSGRRMELSMGPIQANHTGTGLLLTLQPEQKFQKVKGFGGAMTDAAALNILALSPPAQNLLLKSYFSEEGIGYNIIRVPMASCDFSIRTYTYADTPDDFQLHNFSLPEEDTKLKIPLIHRALQLAQRPVSLLASPWTSPTWLKTNGAVNGKGSLKGQPGDIYHQTWARYFVKFLDAYAEHKLQFWAVTAENEPSAGLLSGYPFQCLGFTPEHQRDFIARDLGPTLANSTHHNVRLLMLDDQRLLLPHWAKVVLTDPEAAKYVHGIAVHWYLDFLAPAKATLGKTHRLFPNTMLFASEACVGSKFWEQSVRLGSWDRGMQYSHSIITNLLYHVVGWTDWNLALNPEGGPNWVRNFVDSPIIVDITKDTFYKQPMFYHLGHFSKFIPEGSQRVGLVASQKNDLDAVALMHPDGSAVVVVLNRSSKDVPLTIKDPAVGFLETISPGYSIHTYLWRRQ
[1]; HEK 293T cell lysates, versus wt, n = 5, mean ± SEM
  residual activity of GCase variant: 40.0 ± 2.2%
[2]
  residual activity of GCase variant (literature): ≈ 40%

B2: N370S: disease‐associated GCase variant (protein)
chain: ARPCIPKSFGYSSVVCVCNATYCDSFDPPTFPALGTFSRYESTRSGRRMELSMGPIQANHTGTGLLLTLQPEQKFQKVKGFGGAMTDAAALNILALSPPAQNLLLKSYFSEEGIGYNIIRVPMASCDFSIRTYTYADTPDDFQLHNFSLPEEDTKLKIPLIHRALQLAQRPVSLLASPWTSPTWLKTNGAVNGKGSLKGQPGDIYHQTWARYFVKFLDAYAEHKLQFWAVTAENEPSAGLLSGYPFQCLGFTPEHQRDFIARDLGPTLANSTHHNVRLLMLDDQRLLLPHWAKVVLTDPEAAKYVHGIAVHWYLDFLAPAKATLGETHRLFPNTMLFASEACVGSKFWEQSVRLGSWDRGMQYSHSIITSLLYHVVGWTDWNLALNPEGGPNWVRNFVDSPIIVDITKDTFYKQPMFYHLGHFSKFIPEGSQRVGLVASQKNDLDAVALMHPDGSAVVVVLNRSSKDVPLTIKDPAVGFLETISPGYSIHTYLWRRQ
[1]
  GCase activity compared with mock: do not differ significantly from the mock
[2]
  stability and activity of GCase variant (literature): stable with low residual activity

B3: L444P: disease‐associated GCase variant (protein)
chain: ARPCIPKSFGYSSVVCVCNATYCDSFDPPTFPALGTFSRYESTRSGRRMELSMGPIQANHTGTGLLLTLQPEQKFQKVKGFGGAMTDAAALNILALSPPAQNLLLKSYFSEEGIGYNIIRVPMASCDFSIRTYTYADTPDDFQLHNFSLPEEDTKLKIPLIHRALQLAQRPVSLLASPWTSPTWLKTNGAVNGKGSLKGQPGDIYHQTWARYFVKFLDAYAEHKLQFWAVTAENEPSAGLLSGYPFQCLGFTPEHQRDFIARDLGPTLANSTHHNVRLLMLDDQRLLLPHWAKVVLTDPEAAKYVHGIAVHWYLDFLAPAKATLGETHRLFPNTMLFASEACVGSKFWEQSVRLGSWDRGMQYSHSIITNLLYHVVGWTDWNLALNPEGGPNWVRNFVDSPIIVDITKDTFYKQPMFYHLGHFSKFIPEGSQRVGLVASQKNDPDAVALMHPDGSAVVVVLNRSSKDVPLTIKDPAVGFLETISPGYSIHTYLWRRQ
[1]
  GCase activity compared with mock: do not differ significantly from the mock
[2]
  stability and activity of GCase variant (literature): impaired stability and highly impaired activity

B4: FL‐LIMP‐2: full‐length, membrane‐anchored wt LIMP‐2 (protein, UniProt Q14108 1-478, looked up)
chain: MGRCCFYTAGTLSLLLLVTSVTLLVARVFQKAVDQSIEKKIVLRNGTEAFDSWEKPPLPVYTQFYFFNVTNPEEILRGETPRVEEVGPYTYRELRNKANIQFGDNGTTISAVSNKAYVFERDQSVGDPKIDLIRTLNIPVLTVIEWSQVHFLREIIEAMLKAYQQKLFVTHTVDELLWGYKDEILSLIHVFRPDISPYFGLFYEKNGTNDGDYVFLTGEDSYLNFTKIVEWNGKTSLDWWITDKCNMINGTDGDSFHPLITKDEVLYVFPSDFCRSVYITFSDYESVQGLPAFRYKVPAEILANTSDNAGFCIPEGNCLGSGVLNVSICKNGAPIIMSFPHFYQADERFVSAIEGMHPNQEDHETFVDINPLTGIILKAAKRFQINIYVKKLDDFVETGDIRTMVFPVMYLNESVHIDKETASRLKSMINTTLIITNIPYIIMALGVFFGLVFTWLACKGQGSMDEGTADERAPLIRT
modifications: full-length
[3]; co‐expression with GCase E326K
  GCase activity in LE fractions, E326K: significant increases
[3]; co‐expression with GCase L444P
  GCase transport and activity, L444P: both transport and activity could not be rescued by LIMP‐2
[3]; co‐expression with GCase N370S
  GCase activity in LE fractions, N370S: no increase in enzymatic activity could be determined
[3]; co‐expression with GCase wt
  GCase activity in LE fractions, wt: significant increases
[4]
  lysosomal GCase levels of wt, E326K and N370S: exceeded those of the FL‐LIMP‐2‐3xD control
